These results are taken from patent publication US6596500B1, “Binding of retinoids to M6P/IGF-II receptor” (The General Hospital Corporation, priority 1998, dated 2003).

This assay addresses T1, partially purified rat M6P/IGF-II receptor (Rattus norvegicus, UniProt G3V824).
T1 construct: both intact (300 kDa) and truncated (260 kDa) forms of M6P/IGF-II receptor exist in the serum; from tissue; host or cells: neonatal rat serum, FPLC Sepharose-12 fraction
In words: Equilibrium [3H]RA ligand-binding assay (dextran-charcoal), Scatchard analysis. The conditions noted are these: β-glucuronidase 2,500 units/ml. On the procedure: Partially purified M6P/IGF-II receptors from neonatal rat serum was prepared using a Fast Protein Liquid Chromatography (FPLC) system equipped with a Sepharose-12 column (Pharmacia). The partially purified M6P/IGF2R protein was diluted in binding buffer (20 mM Tris-HCl, pH 8.0/150 mM NaCl/1mM DTT/protease inhibitors) at a concentration of 50 Ag/ml. […] Incubation was carried out at 22° C. for 2 h in the dark. After the incubation, 0.2 ml chilled charcoal-dextran suspension (charcoal/dextran/glycerol=0.5%/0.05%/20%) was added to remove the unbound ligand.

T1 sequence (G3V824 36-2481): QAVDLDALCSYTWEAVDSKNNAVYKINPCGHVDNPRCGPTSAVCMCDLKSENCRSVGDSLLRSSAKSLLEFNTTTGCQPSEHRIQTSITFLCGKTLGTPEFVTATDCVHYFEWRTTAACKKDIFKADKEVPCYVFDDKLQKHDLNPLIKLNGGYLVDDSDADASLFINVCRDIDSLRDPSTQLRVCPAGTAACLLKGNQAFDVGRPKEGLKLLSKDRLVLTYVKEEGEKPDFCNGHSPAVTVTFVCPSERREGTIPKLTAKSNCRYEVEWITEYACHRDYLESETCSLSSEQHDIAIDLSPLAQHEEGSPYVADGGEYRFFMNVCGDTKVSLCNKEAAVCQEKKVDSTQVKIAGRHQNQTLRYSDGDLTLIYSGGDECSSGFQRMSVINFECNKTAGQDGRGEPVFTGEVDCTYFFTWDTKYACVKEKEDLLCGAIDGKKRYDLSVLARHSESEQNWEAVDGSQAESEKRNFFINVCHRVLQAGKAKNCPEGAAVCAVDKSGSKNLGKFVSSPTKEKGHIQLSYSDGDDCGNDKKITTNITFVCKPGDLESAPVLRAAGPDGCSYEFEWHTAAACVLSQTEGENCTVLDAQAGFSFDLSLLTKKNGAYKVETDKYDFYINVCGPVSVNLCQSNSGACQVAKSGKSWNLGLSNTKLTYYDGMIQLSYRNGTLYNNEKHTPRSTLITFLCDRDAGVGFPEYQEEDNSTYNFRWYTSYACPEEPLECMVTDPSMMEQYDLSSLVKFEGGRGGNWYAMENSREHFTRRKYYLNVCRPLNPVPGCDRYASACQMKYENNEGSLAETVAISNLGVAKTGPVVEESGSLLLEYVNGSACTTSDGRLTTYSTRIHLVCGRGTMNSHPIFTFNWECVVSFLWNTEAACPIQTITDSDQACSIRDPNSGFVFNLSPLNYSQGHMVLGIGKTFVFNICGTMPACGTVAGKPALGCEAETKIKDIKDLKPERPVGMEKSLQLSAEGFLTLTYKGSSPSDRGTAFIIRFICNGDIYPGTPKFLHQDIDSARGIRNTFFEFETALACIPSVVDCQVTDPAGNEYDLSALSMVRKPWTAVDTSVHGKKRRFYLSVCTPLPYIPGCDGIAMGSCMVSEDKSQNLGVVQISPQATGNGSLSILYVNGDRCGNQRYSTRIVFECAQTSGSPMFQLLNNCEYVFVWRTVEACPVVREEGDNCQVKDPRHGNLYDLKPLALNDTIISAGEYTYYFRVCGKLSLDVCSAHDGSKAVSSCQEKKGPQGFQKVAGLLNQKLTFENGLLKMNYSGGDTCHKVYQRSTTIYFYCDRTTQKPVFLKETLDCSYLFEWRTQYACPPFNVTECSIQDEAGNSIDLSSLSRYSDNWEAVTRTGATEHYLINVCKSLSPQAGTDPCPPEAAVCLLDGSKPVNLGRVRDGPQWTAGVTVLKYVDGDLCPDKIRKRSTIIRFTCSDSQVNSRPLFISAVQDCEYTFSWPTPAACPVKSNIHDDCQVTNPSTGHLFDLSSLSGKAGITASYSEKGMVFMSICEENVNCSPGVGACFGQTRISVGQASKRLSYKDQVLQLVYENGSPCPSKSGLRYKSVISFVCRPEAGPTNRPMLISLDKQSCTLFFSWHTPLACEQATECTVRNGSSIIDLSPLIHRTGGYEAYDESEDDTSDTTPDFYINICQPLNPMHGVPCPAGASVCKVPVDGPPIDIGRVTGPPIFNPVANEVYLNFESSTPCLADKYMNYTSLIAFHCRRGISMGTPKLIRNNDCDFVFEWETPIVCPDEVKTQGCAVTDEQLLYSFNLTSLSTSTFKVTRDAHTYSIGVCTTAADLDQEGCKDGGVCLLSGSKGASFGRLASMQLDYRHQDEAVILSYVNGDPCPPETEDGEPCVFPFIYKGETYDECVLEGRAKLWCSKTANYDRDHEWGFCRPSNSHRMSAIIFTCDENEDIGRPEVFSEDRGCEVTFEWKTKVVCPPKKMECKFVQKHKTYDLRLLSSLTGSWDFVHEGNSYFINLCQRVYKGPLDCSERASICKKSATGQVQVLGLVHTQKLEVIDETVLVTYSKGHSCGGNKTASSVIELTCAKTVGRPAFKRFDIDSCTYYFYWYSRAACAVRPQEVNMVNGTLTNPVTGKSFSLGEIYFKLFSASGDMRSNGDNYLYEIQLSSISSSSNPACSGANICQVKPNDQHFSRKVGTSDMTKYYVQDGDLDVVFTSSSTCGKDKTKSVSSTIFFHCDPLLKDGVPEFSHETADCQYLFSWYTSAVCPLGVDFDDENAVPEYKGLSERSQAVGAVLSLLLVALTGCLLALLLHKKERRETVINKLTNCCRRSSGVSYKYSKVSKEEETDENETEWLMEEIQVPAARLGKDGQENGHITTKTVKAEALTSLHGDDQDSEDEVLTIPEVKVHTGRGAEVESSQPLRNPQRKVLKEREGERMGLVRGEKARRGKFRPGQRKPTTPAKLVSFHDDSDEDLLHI

B1: β-glucuronidase: M6P-containing lysosomal enzyme (protein, UniProt P08236 23-651, looked up)
Beta-glucuronidase: LQGGMLYPQESPSRECKELDGLWSFRADFSDNRRRGFEEQWYRRPLWESGPTVDMPVPSSFNDISQDWRLRHFVGWVWYEREVILPERWTQDLRTRVVLRIGSAHSYAIVWVNGVDTLEHEGGYLPFEADISNLVQVGPLPSRLRITIAINNTLTPTTLPPGTIQYLTDTSKYPKGYFVQNTYFDFFNYAGLQRSVLLYTTPTTYIDDITVTTSVEQDSGLVNYQISVKGSNLFKLEVRLLDAENKVVANGTGTQGQLKVPGVSLWWPYLMHERPAYLYSLEVQLTAQTSLGPVSDFYTLPVGIRTVAVTKSQFLINGKPFYFHGVNKHEDADIRGKGFDWPLLVKDFNLLRWLGANAFRTSHYPYAEEVMQMCDRYGIVVIDECPGVGLALPQFFNNVSLHHHMQVMEEVVRRDKNHPAVVMWSVANEPASHLESAGYYLKMVIAHTKSLDPSRPVTFVSNSNYAADKGAPYVDVICLNSYYSWYHDYGHLELIQLQLATQFENWYKKYQKPIIQSEYGAETIAGFHQDPPLMFTEEYQKSLLEQYHLGLDQKRRKYVVGELIWNFADFMTEQSPTRVLGNKKGIFTRQRQPKSAAFLLRERYWKIANETRYPHSVAKSQCLENSLFT
Turning to B1, the “Effect on [3H]RA binding to the receptor” value is “increase [^3H]RA binding”.
